Assay results from US20120107364A1 (ACTGEN, published 2012).

Assays:
Experiment in all cases: flow cytometry on Ba/F3 cells expressing the truncated PODXL2
[1] = biological target: T1, PODXL2, positions 1 to 360 (human, UniProt O00592 23-392)
T1 construct: One of the 14 C-terminal truncations; Expressed on Ba/F3 cells; also called R360
T1 sequence: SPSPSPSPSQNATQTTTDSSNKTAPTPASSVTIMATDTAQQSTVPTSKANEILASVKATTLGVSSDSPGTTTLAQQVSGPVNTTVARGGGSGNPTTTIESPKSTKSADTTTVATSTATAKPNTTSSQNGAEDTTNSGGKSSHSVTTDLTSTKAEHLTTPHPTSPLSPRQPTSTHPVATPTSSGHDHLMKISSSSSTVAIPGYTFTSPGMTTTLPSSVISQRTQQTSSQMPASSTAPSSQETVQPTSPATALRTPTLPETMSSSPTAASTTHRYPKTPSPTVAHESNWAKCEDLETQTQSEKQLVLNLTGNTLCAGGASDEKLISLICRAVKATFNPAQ
Protocol: (§1) To each sample of the cell suspension, 50 μl of the hybridoma culture supernatant or 2-μg/ml of the purified antibody (hereinafter, referred to as an “antibody solution”) was added, and the antibody was reacted with the cells. As an isotype control of the antibody solution, a wash buffer containing 2 μg/ml of each of mouse IgG1 (BioLegend, 400412), mouse IgG2a (BioLegend, 400224), and mouse IgG2b (BioLegend, 400324) was used. The hybridoma culture supernatant was reacted with the target cells at room temperature for 30 minutes, followed by centrifugation at 700×g for 2 minutes. Then, a culture supernatant was removed. Further, 100 μl of a wash buffer was added, followed by centrifugation at 700×g for 2 minutes again. A supernatant was removed. Then, the cells were washed.
(§2) Next, to the cell pellets after the washing, 50 μl of Goat anti-mouse IgG, F(ab′) 2-PE (PE=phycoerythrin, Beckman Coulter, IM0855) diluted 200-fold with a wash buffer was added as a secondary antibody for detection, and reacted in the dark at room temperature for 30 minutes. The reaction was followed by centrifugation at 700×g for 2 minutes. A supernatant was removed. Further, 100 μl of a wash buffer was added, followed by centrifugation at 700×g for 2 minutes again. A supernatant was removed. Then, the cells were washed. Thereafter, the cells were suspended in an appropriate amount of a wash buffer. The reactivity between the antibody and the cells was analyzed by a flow cytometer (Beckman Coulter, FC500 MPL).
(§3) Thereafter, by the same method as in Example 1 (4) (the virus packaging and thereafter), Ba/F3 cells containing the PODXL2 gene sequences of various chain lengths were prepared. Further, by the same method as in Example 4, the reactivity between the ACT36-27_{—}5D1 antibody and the Ba/F3 cells expressing the PODXL2 molecules of various chain lengths was analyzed by a flow cytometer (FIG. 10).

[2] = biological target: T2, PODXL2, positions 1 to 370 (human, UniProt O00592 23-402)
T2 construct: One of the 14 C-terminal truncations; Expressed on Ba/F3 cells; also called R370
T2 sequence: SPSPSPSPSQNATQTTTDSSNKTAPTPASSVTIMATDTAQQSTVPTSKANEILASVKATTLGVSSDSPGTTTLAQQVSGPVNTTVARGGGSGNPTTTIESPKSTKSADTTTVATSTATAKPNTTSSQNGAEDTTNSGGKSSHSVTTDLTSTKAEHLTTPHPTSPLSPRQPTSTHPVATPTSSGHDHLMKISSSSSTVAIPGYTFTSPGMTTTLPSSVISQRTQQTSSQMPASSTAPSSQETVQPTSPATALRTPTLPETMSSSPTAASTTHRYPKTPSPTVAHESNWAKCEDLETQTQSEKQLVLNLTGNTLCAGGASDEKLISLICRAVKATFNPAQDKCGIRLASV
Protocol: as §1, §2, §3

[3] = biological target: T3, PODXL2, positions 1 to 400 (human, UniProt O00592 23-432)
T3 construct: Encoded as positions 1-400 in pMX-SST and expressed on Ba/F3 cells; The vector-encoded part is not described; also called R400
T3 sequence: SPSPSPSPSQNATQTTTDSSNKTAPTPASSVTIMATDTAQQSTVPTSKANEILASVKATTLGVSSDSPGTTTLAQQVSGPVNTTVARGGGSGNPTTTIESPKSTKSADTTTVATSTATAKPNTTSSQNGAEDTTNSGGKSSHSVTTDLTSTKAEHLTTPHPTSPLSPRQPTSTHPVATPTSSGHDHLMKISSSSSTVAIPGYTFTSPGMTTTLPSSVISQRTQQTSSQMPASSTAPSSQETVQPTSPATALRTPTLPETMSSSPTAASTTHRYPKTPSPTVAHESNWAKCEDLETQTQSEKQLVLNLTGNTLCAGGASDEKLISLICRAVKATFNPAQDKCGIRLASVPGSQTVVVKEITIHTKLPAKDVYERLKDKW
Protocol: as §1, §2, §3

[4] = biological target: T4, PODXL2, positions 1 to 340 (human, UniProt O00592 23-372)
T4 construct: One of the 14 C-terminal truncations; Expressed on Ba/F3 cells; also called R340
T4 sequence: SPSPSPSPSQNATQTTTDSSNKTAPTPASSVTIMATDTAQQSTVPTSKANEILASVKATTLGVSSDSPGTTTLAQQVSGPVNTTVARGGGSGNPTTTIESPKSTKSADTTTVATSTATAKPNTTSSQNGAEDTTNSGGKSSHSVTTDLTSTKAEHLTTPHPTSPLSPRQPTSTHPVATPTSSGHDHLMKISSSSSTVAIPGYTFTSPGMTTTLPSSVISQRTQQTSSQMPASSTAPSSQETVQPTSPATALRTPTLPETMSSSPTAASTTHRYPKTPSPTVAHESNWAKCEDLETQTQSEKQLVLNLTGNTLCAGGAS
Protocol: as §1, §2, §3

[5] = biological target: T5, PODXL2, positions 1 to 380 (human, UniProt O00592 23-412)
T5 construct: One of the 14 C-terminal truncations; Expressed on Ba/F3 cells; also called R380
T5 sequence: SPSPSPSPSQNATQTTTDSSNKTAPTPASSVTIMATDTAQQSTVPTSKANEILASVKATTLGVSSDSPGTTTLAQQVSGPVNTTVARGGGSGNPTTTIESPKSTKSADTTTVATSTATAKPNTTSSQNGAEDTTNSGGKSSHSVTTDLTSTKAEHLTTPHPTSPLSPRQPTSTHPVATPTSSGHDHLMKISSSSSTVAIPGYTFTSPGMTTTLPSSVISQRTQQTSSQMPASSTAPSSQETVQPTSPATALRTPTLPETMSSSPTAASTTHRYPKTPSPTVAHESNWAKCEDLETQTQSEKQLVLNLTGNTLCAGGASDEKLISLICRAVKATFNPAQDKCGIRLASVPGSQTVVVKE
Protocol: as §1, §2, §3

- binding result [1]: no binding
- binding result [2]: no binding
- binding result [3]: no binding
- binding result [4]: no binding
- binding result [5]: no binding
B1: ACT36-27-5D1 antibody (antibody, V domains shown)
VH: EVQLQQSGPELVKPGASVKMSCKASGYTFTSYVMHWVKQKPGQGLEWIGYIHPYNDGIKYNEKFKGKATLTSDKSSSTAYMDLSSLTSEDSAVYYCARSWDWYFDVWAAGTTVTVSS
VL: QIVLTQSPAIMSASPGEKVSMTCSASSSVSYMHWYQQKSGTSPKRWIYDTSKLASGVPARFSGSGSGTSYSLTISSMEAEDAATYYCLQWSSNPPTFGGGTKLE
notes: also called anti-PODXL2 antibody ACT36-27-5D1; anti-ACT36-27-5D1 monoclonal antibody
